B1: Sodium channel modifier 1 (Homo sapiens), Q9BWG6 (parent)
chain: MSFKREGDDWSQLNVLKKRRVGDLLASYIPEDEALMLRDGRFACAICPHRPVLDTLAMLTAHRAGKKHLSSLQLFYGKKQPGKERKQNPKHQNELRREETKAEAPLLTQTRLITQSALHRAPHYNSCCRRKYRPEAPGPSVSLSPMPPSEVKLQSGKISREPEPAAGPQAEESATVSAPAPMSPTRRRALDHYLTLRSSGWIPDGRGRWVKDENVEFDSDEEEPPDLPLD
B2: Syntaxin-12 (Homo sapiens), Q86Y82 (parent)
chain: MSYGPLDMYRNPGPSGPQLRDFSSIIQTCSGNIQRISQATAQIKNLMSQLGTKQDSSKLQENLQQLQHSTNQLAKETNELLKELGSLPLPLSTSEQRQQRLQKERLMNDFSAALNNFQAVQRRVSEKEKESIARARAGSRLSAEERQREEQLVSFDSHEEWNQMQSQEDEVAITEQDLELIKERETAIRQLEADILDVNQIFKDLAMMIHDQGDLIDSIEANVESSEVHVERATEQLQRAAYYQKKSRKKMCILVLVLSVIILILGLIIWLVYKTK
B3: Zinc finger protein Aiolos (Homo sapiens), Q9UKT9 (parent)
chain: MEDIQTNAELKSTQEQSVPAESAAVLNDYSLTKSHEMENVDSGEGPANEDEDIGDDSMKVKDEYSERDENVLKSEPMGNAEEPEIPYSYSREYNEYENIKLERHVVSFDSSRPTSGKMNCDVCGLSCISFNVLMVHKRSHTGERPFQCNQCGASFTQKGNLLRHIKLHTGEKPFKCHLCNYACQRRDALTGHLRTHSVEKPYKCEFCGRSYKQRSSLEEHKERCRTFLQSTDPGDTASAEARHIKAEMGSERALVLDRLASNVAKRKSSMPQKFIGEKRHCFDVNYNSSYMYEKESELIQTRMMDQAINNAISYLGAEALRPLVQTPPAPTSEMVPVISSMYPIALTRAEMSNGAPQELEKKSIHLPEKSVPSERGLSPNNSGHDSTDTDSNHEERQNHIYQQNHMVLSRARNGMPLLKEVPRSYELLKPPPICPRDSVKVINKEGEVMDVYRCDHCRVLFLDYVMFTIHMGCHGFRDPFECNMCGYRSHDRYEFSSHIARGEHRALLK
partner: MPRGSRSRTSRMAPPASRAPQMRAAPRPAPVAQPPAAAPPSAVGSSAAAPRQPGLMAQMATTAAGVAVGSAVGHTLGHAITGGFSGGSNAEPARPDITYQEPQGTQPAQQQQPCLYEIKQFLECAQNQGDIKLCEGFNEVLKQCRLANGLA
B4: Keratin-associated protein 5-9 (Homo sapiens), P26371 (parent)
chain: MGCCGCSGGCGSSCGGCDSSCGSCGSGCRGCGPSCCAPVYCCKPVCCCVPACSCSSCGKRGCGSCGGSKGGCGSCGCSQCSCCKPCCCSSGCGSSCCQCSCCKPYCSQCSCCKPCCSSSGRGSSCCQSSCCKPCCSSSGCGSSCCQSSCCKPCCSQSRCCVPVCYQCKI
partner: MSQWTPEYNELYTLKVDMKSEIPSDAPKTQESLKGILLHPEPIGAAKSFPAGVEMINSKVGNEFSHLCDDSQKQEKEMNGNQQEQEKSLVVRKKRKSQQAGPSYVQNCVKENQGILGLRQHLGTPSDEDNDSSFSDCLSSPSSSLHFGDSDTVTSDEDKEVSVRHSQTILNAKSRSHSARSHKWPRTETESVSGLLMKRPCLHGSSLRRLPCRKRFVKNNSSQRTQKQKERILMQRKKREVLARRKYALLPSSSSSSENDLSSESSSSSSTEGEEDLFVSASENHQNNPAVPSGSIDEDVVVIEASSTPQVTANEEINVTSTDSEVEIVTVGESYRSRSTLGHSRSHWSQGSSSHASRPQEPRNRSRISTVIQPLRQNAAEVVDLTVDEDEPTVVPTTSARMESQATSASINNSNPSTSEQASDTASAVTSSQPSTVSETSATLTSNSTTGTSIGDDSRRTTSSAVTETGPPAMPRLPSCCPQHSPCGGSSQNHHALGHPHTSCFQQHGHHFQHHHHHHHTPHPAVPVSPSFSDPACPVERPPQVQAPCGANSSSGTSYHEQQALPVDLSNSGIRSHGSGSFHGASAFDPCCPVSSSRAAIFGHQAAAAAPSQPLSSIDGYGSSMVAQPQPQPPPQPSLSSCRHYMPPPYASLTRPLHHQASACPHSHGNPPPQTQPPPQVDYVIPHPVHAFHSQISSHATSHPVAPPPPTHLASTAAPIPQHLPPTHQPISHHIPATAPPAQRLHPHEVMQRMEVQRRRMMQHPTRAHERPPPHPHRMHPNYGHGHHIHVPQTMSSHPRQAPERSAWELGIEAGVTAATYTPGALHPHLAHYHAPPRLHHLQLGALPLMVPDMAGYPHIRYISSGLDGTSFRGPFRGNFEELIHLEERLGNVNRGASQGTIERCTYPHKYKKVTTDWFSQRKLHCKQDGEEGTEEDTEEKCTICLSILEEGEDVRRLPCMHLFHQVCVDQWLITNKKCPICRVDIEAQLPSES
B5: E3 ubiquitin-protein ligase ARIH2 (Homo sapiens), O95376 (parent)
chain: MSVDMNSQGSDSNEEDYDPNCEEEEEEEEDDPGDIEDYYVGVASDVEQQGADAFDPEEYQFTCLTYKESEGALNEHMTSLASVLKVSHSVAKLILVNFHWQVSEILDRYKSNSAQLLVEARVQPNPSKHVPTSHPPHHCAVCMQFVRKENLLSLACQHQFCRSCWEQHCSVLVKDGVGVGVSCMAQDCPLRTPEDFVFPLLPNEELREKYRRYLFRDYVESHYQLQLCPGADCPMVIRVQEPRARRVQCNRCNEVFCFKCRQMYHAPTDCATIRKWLTKCADDSETANYISAHTKDCPKCNICIEKNGGCNHMQCSKCKHDFCWMCLGDWKTHGSEYYECSRYKENPDIVNQSQQAQAREALKKYLFYFERWENHNKSLQLEAQTYQRIHEKIQERVMNNLGTWIDWQYLQNAAKLLAKCRYTLQYTYPYAYYMESGPRKKLFEYQQAQLEAEIENLSWKVERADSYDRGDLENQMHIAEQRRRTLLKDFHDT
B6: Polymerase delta-interacting protein 3 (Homo sapiens), Q9BY77 (parent)
chain: MADISLDELIRKRGAAAKGRLNARPGVGGVRSRVGIQQGLLSQSTRTATFQQRFDARQKIGLSDARLKLGVKDAREKLLQKDARFRIKGKVQDAREMLNSRKQQTTVPQKPRQVADAREKISLKRSSPAAFINPPIGTVTPALKLTKTIQVPQQKAMAPLHPHPAGMRINVVNNHQAKQNLYDLDEDDDGIASVPTKQMKFAASGGFLHHMAGLSSSKLSMSKALPLTKVVQNDAYTAPALPSSIRTKALTNMSRTLVNKEEPPKELPAAEPVLSPLEGTKMTVNNLHPRVTEEDIVELFCVCGALKRARLVHPGVAEVVFVKKDDAITAYKKYNNRCLDGQPMKCNLHMNGNVITSDQPILLRLSDSPSMKKESELPRRVNSASSSNPPAEVDPDTILKALFKSSGASVTTQPTEFKIKL
partner: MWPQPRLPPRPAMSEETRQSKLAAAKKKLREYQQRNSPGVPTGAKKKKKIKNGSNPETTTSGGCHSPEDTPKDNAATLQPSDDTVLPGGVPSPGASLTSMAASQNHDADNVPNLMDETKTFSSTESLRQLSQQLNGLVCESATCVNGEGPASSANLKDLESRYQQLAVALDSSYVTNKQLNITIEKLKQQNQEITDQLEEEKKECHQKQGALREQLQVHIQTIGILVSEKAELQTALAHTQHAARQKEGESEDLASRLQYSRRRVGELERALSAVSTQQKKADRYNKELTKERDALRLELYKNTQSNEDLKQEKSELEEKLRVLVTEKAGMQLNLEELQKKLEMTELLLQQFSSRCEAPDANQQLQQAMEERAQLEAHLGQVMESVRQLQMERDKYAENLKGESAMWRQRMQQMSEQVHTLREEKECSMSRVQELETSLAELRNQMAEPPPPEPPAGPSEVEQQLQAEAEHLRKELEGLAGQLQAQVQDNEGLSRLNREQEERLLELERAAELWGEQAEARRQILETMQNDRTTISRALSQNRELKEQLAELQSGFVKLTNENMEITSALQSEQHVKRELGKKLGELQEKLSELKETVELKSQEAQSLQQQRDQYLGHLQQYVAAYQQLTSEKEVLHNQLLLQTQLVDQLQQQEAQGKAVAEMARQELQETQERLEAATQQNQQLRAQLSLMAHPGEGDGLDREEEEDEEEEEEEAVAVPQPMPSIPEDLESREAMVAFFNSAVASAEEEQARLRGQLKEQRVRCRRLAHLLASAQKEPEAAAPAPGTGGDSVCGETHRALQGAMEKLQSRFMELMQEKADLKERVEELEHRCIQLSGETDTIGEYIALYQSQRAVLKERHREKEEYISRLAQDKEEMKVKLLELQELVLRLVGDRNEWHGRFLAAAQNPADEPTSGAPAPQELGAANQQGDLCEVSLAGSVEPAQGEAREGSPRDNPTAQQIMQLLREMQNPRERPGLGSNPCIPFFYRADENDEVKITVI

Variants of: B1
Conditions: with hm20a_human HMG20A

effect of a mutation on the interaction | Variant
with no effect | R206P

Variants of: B1
Conditions: with trim1_human MID2, Q9UJV3
Sequence of trim1_human MID2, Q9UJV3 (Q9UJV3 whole entry): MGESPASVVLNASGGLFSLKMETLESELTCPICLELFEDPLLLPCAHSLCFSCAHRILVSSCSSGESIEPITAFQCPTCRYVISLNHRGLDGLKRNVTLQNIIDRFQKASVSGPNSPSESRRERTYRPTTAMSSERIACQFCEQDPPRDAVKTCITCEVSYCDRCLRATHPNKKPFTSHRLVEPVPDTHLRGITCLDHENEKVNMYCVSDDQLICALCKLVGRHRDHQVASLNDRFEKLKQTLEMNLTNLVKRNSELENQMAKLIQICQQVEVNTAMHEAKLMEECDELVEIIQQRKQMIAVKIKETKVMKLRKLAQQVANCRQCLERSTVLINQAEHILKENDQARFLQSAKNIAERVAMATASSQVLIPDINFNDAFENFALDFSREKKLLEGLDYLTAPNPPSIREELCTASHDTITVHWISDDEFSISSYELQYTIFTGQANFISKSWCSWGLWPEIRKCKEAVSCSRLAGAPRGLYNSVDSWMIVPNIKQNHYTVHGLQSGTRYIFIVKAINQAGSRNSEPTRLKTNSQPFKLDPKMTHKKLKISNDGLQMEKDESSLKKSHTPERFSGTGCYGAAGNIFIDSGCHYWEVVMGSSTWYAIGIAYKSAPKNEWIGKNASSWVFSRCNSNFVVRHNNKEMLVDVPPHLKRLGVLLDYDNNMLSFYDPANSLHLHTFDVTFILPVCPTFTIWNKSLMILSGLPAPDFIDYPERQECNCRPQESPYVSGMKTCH

effect of a mutation on the interaction | Variant
with no effect | R206P

Variants of: B1
Conditions: with pls1_human PLSCR1, O15162
Sequence of pls1_human PLSCR1, O15162 (O15162 whole entry): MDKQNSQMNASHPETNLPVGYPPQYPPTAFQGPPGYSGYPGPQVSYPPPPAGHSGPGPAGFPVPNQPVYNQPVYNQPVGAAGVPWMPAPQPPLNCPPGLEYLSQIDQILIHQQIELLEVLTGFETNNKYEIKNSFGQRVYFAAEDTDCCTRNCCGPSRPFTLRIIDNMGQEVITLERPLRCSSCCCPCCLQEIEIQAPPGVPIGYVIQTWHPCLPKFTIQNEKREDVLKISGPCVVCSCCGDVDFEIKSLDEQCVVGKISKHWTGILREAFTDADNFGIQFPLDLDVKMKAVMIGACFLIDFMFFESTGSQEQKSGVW

effect of a mutation on the interaction | Variant
with no effect | R206P

Variants of: B1
Conditions: with inca1_human INCA1, Q0VD86
Sequence of inca1_human INCA1, Q0VD86 (Q0VD86 whole entry): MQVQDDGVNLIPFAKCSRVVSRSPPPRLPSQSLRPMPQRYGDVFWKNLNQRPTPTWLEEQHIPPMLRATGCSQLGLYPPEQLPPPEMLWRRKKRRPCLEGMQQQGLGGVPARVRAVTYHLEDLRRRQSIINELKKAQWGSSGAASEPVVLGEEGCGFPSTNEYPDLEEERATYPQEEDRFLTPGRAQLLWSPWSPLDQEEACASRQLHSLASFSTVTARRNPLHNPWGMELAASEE

effect of a mutation on the interaction | Variant
with no effect | R206P

Variants of: B2
Conditions: with dtx2_human DTX2, Q86UW9
Sequence of dtx2_human DTX2, Q86UW9 (Q86UW9 whole entry): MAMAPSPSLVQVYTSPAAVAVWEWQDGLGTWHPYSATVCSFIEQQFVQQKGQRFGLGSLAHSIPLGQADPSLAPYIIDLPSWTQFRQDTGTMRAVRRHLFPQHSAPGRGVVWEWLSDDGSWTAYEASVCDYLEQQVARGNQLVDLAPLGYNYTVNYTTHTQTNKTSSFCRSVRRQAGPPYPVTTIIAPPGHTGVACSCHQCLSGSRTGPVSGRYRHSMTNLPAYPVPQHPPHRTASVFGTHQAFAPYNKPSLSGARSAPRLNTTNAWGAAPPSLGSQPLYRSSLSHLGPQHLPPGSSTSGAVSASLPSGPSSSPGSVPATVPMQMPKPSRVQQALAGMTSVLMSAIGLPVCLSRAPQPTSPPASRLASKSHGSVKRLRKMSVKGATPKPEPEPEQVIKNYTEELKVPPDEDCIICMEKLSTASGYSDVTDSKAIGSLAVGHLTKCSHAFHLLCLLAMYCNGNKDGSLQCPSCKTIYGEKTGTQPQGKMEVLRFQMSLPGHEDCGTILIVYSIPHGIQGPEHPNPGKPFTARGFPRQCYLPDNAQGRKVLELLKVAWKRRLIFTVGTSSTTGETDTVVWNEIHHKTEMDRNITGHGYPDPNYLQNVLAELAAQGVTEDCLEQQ

effect of a mutation on the interaction | Variant
with no effect | P88R

Variants of: B2
Conditions: with stx4_human STX4, Q12846
Sequence of stx4_human STX4, Q12846 (Q12846 whole entry): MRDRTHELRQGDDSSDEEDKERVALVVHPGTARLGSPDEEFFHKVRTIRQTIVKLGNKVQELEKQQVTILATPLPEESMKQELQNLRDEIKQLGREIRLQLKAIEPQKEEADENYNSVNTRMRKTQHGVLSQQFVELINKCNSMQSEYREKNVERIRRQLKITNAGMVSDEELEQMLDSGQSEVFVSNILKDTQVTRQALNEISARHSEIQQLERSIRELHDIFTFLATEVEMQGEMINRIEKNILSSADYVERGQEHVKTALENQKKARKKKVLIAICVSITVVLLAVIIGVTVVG

effect of a mutation on the interaction | Variant
with no effect | P88R

Variants of: B3
Conditions: with chch2_human CHCHD2, Q9Y6H1

effect of a mutation on the interaction | Variant
with no effect | A24V
with no effect | N119D

Variants of: B4
Conditions: with rn111_human RNF111, Q6ZNA4

effect of a mutation on the interaction | Variant
with no effect | Y40C

Variants of: B5
Conditions: with ub2l6_human UBE2L6, O14933
Sequence of ub2l6_human UBE2L6, O14933 (O14933 whole entry): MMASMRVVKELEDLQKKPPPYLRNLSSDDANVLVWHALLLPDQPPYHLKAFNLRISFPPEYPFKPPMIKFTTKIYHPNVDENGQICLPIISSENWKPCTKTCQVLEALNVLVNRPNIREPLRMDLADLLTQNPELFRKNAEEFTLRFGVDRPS

effect of a mutation on the interaction | Variant
with no effect | E29D

Variants of: B5
Conditions: with bub1_human BUB1, O43683
Sequence of bub1_human BUB1, O43683 (O43683 whole entry, looked up): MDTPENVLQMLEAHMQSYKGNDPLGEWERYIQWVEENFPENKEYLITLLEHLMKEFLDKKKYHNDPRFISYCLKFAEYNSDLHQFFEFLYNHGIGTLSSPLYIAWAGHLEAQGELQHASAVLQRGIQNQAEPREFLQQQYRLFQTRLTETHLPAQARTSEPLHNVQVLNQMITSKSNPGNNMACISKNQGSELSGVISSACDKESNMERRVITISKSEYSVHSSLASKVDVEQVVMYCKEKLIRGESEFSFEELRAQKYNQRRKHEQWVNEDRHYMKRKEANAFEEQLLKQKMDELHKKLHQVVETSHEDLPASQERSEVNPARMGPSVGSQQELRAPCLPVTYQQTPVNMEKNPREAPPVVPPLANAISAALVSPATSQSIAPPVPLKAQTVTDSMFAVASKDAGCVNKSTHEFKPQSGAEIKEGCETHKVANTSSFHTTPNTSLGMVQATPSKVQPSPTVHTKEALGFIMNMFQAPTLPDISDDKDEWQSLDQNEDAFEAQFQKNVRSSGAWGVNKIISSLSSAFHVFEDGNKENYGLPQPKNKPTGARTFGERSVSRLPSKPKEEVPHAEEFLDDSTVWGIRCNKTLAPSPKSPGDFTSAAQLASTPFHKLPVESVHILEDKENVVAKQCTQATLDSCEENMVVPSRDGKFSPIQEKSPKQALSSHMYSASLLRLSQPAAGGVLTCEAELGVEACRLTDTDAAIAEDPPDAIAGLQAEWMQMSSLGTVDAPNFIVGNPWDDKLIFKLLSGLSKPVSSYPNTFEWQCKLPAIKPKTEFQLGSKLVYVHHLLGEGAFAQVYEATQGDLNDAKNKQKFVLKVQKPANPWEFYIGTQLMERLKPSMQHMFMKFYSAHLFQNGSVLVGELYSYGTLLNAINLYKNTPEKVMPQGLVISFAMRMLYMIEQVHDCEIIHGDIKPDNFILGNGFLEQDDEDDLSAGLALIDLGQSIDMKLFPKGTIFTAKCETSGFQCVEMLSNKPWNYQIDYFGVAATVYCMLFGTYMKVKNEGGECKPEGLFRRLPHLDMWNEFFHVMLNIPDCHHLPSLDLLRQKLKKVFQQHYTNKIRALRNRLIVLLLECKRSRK

effect of a mutation on the interaction | Variant
with no effect | E29D

Variants of: B6
Conditions: with goga2_human GOLGA2, Q08379

effect of a mutation on the interaction | Variant
with no effect | A16V

Source: IntAct's records for PubMed 31515488
